The values that follow come from article PMC8311663 (Molecular cell, 2021).

T1: Mycobacterium tuberculosis RNA polymerase β subunit (M. tuberculosis, UniProt P9WGY9 1-1178)
T1 sequence: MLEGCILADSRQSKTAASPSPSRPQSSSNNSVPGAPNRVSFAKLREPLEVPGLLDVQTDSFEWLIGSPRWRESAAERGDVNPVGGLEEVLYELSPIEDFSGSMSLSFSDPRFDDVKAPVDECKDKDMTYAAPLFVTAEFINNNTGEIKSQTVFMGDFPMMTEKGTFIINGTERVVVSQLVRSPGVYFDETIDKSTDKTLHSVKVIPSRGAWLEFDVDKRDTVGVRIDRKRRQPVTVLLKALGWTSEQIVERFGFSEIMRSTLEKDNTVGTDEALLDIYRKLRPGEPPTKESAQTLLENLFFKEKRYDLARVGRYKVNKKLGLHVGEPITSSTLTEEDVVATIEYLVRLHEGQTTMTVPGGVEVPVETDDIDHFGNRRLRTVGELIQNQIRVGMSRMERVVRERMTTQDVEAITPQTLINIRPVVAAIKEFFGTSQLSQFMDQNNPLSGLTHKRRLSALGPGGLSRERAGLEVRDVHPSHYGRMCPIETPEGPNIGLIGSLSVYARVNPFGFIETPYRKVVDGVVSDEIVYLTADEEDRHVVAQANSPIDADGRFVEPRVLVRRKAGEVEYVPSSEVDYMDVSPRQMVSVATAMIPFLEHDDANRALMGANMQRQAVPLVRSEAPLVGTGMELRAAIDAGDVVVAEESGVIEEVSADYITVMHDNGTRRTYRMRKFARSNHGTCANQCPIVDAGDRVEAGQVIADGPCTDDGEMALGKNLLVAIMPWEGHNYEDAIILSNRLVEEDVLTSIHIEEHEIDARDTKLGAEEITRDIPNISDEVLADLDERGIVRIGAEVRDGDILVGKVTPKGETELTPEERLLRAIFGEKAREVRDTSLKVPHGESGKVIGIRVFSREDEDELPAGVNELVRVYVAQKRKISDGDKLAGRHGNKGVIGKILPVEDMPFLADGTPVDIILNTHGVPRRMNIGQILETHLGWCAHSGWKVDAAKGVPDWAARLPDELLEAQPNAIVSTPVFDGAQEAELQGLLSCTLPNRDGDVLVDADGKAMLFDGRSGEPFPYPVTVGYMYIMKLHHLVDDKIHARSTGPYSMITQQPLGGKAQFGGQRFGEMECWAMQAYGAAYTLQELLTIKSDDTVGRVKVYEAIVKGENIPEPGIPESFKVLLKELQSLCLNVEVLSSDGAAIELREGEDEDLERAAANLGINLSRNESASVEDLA

T2: Mycobacterium tuberculosis σ^A (co-expressed with RbpA) (M. tuberculosis, UniProt P9WGI1)
T2 sequence: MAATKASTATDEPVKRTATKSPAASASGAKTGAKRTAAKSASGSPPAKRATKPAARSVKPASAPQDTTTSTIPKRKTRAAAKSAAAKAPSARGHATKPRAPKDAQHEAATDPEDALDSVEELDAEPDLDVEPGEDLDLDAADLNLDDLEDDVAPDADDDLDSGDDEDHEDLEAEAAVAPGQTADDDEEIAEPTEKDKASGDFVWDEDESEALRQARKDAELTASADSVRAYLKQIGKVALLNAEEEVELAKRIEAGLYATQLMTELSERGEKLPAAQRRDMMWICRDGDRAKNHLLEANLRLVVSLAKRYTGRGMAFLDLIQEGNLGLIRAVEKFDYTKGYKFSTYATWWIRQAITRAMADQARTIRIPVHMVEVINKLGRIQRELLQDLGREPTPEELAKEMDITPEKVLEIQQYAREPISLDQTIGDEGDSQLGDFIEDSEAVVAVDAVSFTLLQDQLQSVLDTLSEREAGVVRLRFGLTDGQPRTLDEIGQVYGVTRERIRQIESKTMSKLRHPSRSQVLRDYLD

B1: Mycobacterium tuberculosis WhiB7 (6His-WhiB7) (natural protein)
chain: MSVLTVPRQTPRQRLPVLPCHVGDPDLWFADTPAGLEVAKTLCVSCPIRRQCLAAALQRAEPWGVWGGEIFDQGSIVSHKRPRGRPRKDAVA
B2: Mycobacterium tuberculosis CarD (natural protein)
chain: MIFKVGDTVVYPHHGAALVEAIETRTIKGEQKEYLVLKVAQGDLTVRVPAENAEYVGVRDVVGQEGLDKVFQVLRAPHTEEPTNWSRRYKANLEKLASGDVNKVAEVVRDLWRRDQERGLSAGEKRMLAKARQILVGELALAESTDDAKAETILDEVLAAAS
B3: Mycobacterium tuberculosis σ^A (Strep-tag II-σ^A, co-expressed with WhiB7) (natural protein)
chain: AATKASTATDEPVKRTATKSPAASASGAKTGAKRTAAKSASGSPPAKRATKPAARSVKPASAPQDTTTSTIPKRKTRAAAKSAAAKAPSARGHATKPRAPKDAQHEAATDPEDALDSVEELDAEPDLDVEPGEDLDLDAADLNLDDLEDDVAPDADDDLDSGDDEDHEDLEAEAAVAPGQTADDDEEIAEPTEKDKASGDFVWDEDESEALRQARKDAELTASADSVRAYLKQIGKVALLNAEEEVELAKRIEAGLYATQLMTELSERGEKLPAAQRRDMMWICRDGDRAKNHLLEANLRLVVSLAKRYTGRGMAFLDLIQEGNLGLIRAVEKFDYTKGYKFSTYATWWIRQAITRAMADQARTIRIPVHMVEVINKLGRIQRELLQDLGREPTPEELAKEMDITPEKVLEIQQYAREPISLDQTIGDEGDSQLGDFIEDSEAVVAVDAVSFTLLQDQLQSVLDTLSEREAGVVRLRFGLTDGQPRTLDEIGQVYGVTRERIRQIESKTMSKLRHPSRSQVLRDYLD
B4: Mycobacterium tuberculosis RbpA (co-expressed with σ^A) (natural protein)
chain: MADRVLRGSRLGAVSYETDRNHDLAPRQIARYRTDNGEEFEVPFADDAEIPGTWLCRNGMEGTLIEGDLPEPKKVKPPRTHWDMLLERRSIEELEELLKERLELIRSRRRG
B5: Mycobacterium tuberculosis RbpA (expressed alone from pET20b) (natural protein)
chain: B4 chain

Holding throughout (test): cryo-EM structure
Assay [1] has as its target Mycobacterium tuberculosis RNA polymerase β’ subunit (M. tuberculosis, UniProt P9WGY7).
Assay [2] deals with B3.
For assay [3], the target named is T1, Mycobacterium tuberculosis RNA ….
The target of assay [4] is T2, Mycobacterium tuberculosis σ^A ….

Consider B1, for which the binding result in assay [1] and in assay [2] was “binds” in each case. As for B2, the binding result in assay [3] is given as “binds”.

As for B3, the binding result in assay [1] and in assay [3] was “binds” throughout. B4: the binding result in assay [4] is “binds”.

For B5, the binding result in assay [2] is “binds”.
